# Reference: the nanobody polyreactivity screen of Harvey et al. (2022)
# Assay: yeast display, Sf9 membrane polyspecificity reagent, FACS + sequencing; frameworks hold sequencing errors
# Outline: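 Galactose-induced (36–48 hours) yeast carrying a synthetic nanobody display library were exposed to 10% biotinylated, detergent-solubilized Sf9 membrane reagent at 4 °C for 1 hour. FACS followed streptavidin microbead enrichment, using low and high (top ~1%) gates for expression (anti-HA) and reagent binding (streptavidin). Colony PCR, MiSeq 2 × 250 sequencing and CDR-length filtering followed. Labels for polyreactivity reflect the gate of origin.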
row,Sequence,polyreactivity (PSR sort gate)
1,QVQLVESGGGLVQAGGSLRLSCAASGLTLSGYAMGWYRQAPGKERELVAAISSTGGSTYYADSVKGRFTISRDNAKNTVYLQMNSLKPEATAVYYCAKGYSPTRVRLRYPRYDTYNHWGQVTQVTVSS,high polyreactivity
2,QVQLVESGGGLVQAGGSLRLSCAASGLTLSYTMGWYRQAPGKERELVASITWSGTRTYYADSVKGRFTISRDNAKNTVYLQMNSLKPEDTAVYYCARRSSYGSWGYNYWGQGTQVTVSS,high polyreactivity
3,QVQLVESGGGLVQAGGSLRLSCAASGLTLTYYAMGWYRQAPGKERELVAAISSSGGSTYYADSVKGRFTISRDNAKNTVYLQMNSLKPEDAAVYYCAATRVSWTGRDDYWGQGTQVTVSS,high polyreactivity
4,QVQLVESGGGLVQAGGSLRLSCAASGLTLTYYAMGWYRQAPGKERELVAAISSSGGSTYYADSVKGRFTISRDNAKNTVYLQMNSLKPEDTAVYYCAATRVSWTGRDDYWGQGTQVTVSS,high polyreactivity
5,QVQLVESGGGLVQAGGSLRLSCAASGLTLVTIGMGWYSQAPAKERELVAAIDSTGGRTYYADSVKGRFTISRDNAKKTVYLQMTSLKPEDTAVSYCNRRWYARAAYWGQGTQVTVSS,high polyreactivity
6,QVQLVESGGGLVQAGGSLRLSCAASGLTLYGYTMGWYRQAPGKERELGATITTGGDYTYYADSVKGRFTISRDNAKNTVYLQMNRLKPVDTAVYYCAAYSYGWDYSYDYWGQVTQVTVSS,low polyreactivity
7,QVQLVESGGGLVQAGGSLRLSCAASGLTLYQYSMGWYRQAPGKERELVAAIPTSGSTYFADSVKGRFTISRDNAKNTVYLQMNSLKPEDTAVYYCAADVYYVDTLSGYRYGYDYWGQCTQVTVSS,low polyreactivity
8,QVQLVESGGGLVQAGGSLRLSCAASGLTLYRYALGWYRQAPGKERELVAAISWGGGSTYYADSVKGRFTISRDNAKNTVYLQMNSLKPEDTAVYYCAAGRLLYIPRYYYWGQGTQVTVSS,high polyreactivity
9,QVQLVESGGGLVQAGGSLRLSCAASGLTSVRNAMGWYRQAPGKERELVAGISWSGGRTYYADSVKGRFTISRDNAKNTVYLQMNSLKPEDTAVYYCNKVRAYYTQEGSWGQGTQVTVSS,high polyreactivity
10,QVQLVESGGGLVQAGGSLRLSCAASGLYAMGWYRPAPGKERELVADINSSGGSITNYADSVKGRFTISRDNAKNTVYLQMISLKPEDTAVYYCAKRGPYFAYDYWGQGTQVTVSS,low polyreactivity
11,QVQLVESGGGLVQAGGSLRLSCAASGMGWYRQAPGKERELVATITTGGTYADSVKGRFTISRDNAKNTVYLQMNSLKPEDTAVYYCAADGLGSVYYLRYNYWGQGTQVTVSS,low polyreactivity
12,QVQLVESGGGLVQAGGSLRLSCAASGMIFKYYVMGWYRQAPGKERELVAAIRWSGGITSYADSVKGRFTISRDNAKNTVYLQMNSLKPEDTAVYYCAVAHSRLRTAYTFSVQRYDYWGQGTQVTVSS,low polyreactivity
13,QVQLVESGGGLVQAGGSLRLSCAASGMTFTDYAMGWYRQAPGKERELVAAISRSGGTTYYADSVKGRFTISRDNAKNTVYLQMNSLKPEDTAVYYCAARVTPGRNGGGYWGQGTQVTVSS,high polyreactivity
14,QVQLVESGGGLVQAGGSLRLSCAASGNAMGWYRQAPGKERELVASINRSGGRTYFADSVKGRFTISRDNAKNTVYLQMNRLIPEDTAVYYCAKGPRGADLTHGAYVEMEYWGQGTQVTVSS,low polyreactivity
15,QVQLVESGGGLVQAGGSLRLSCAASGNAMGWYRQAPGKERELVASINRSGGSTYYADSVKGRFTISRDNAKNTVYLQMNSLIPEDTAVYSCNTDVGATVEDDYWGQGTQVTVSS,low polyreactivity
16,QVQLVESGGGLVQAGGSLRLSCAASGNAMGWYRQAPGNERELVAAITRRGGSTYYADSVKGRFTISRDNAKNTVYLQMNSLKPEDTAVYYCAADNPSYNLWYGYWGQGTQVTVSS,low polyreactivity
17,QVQLVESGGGLVQAGGSLRLSCAASGNIFATYAMGWYRHAPGKEREFVAAITSRGGGTFYADSVKGRFTISRDNAKNTVYLQMNSLKPEDTAVYYCAARRSGHWLYGYWGQGTQVTVSS,high polyreactivity
18,QVQLVESGGGLVQAGGSLRLSCAASGNIFCINTMGWYRQAPGKERELVAAIDASDGSTYYADSVKGRFTISRDNAKNTVYLQMNSLKPEDTAVYYCATRSGYDSVYYFYTLWYYYWGQGTQVTVCS,low polyreactivity
19,QVQLVESGGGLVQAGGSLRLSCAASGNIFDEYTMGWYRQAPGKERELVAAINSGGSTDYADSVKGRFTISRDNAKNTVYLQMNSLKPEDTAVYYCARDVWPTKIQLQPGYGRGEYWGQGTQVTVSS,low polyreactivity
20,QVQLVESGGGLVQAGGSLRLSCAASGNIFDEYTMGWYRQAPGKERELVAAISWRGGSTYYADSVKGRFTISRDNAKNTVYLQMNSLKPEDTAVYYCNKAYPADYDYWGQGTQVTVSS,low polyreactivity
21,QVQLVESGGGLVQAGGSLRLSCAASGNIFDEYTMGWYRQAPGKERELVAGISWSGSHTYYADSVKGRFTISRDNAKNTVYLQMNSLKPEDTAVYYCIADSYPDYTGPGLDWYDYWGQGTQVTVSS,low polyreactivity
22,QVQLVESGGGLVQAGGSLRLSCAASGNIFDGYAMGWYRQAPGKERELVAAISLSGGSTNYADSVKGRFTISRDNAKNTVYLQMNSLKPEDTAVYYCNARNWYYEGDYWGQGTQVTVSS,high polyreactivity

row,Sequence,polyreactivity (PSR sort gate)
1,QVQLVESGGGLVQAGGSLRLSCAASGNIFDHYAMGWYRQAPGKEREMVAAISSGGSTSYADSVKGRFTITRDNAKTTVYVQMNCLKPEDTAVYYCAAESFVQYKSPKWVHRYDSWGQGTQVTVSS,low polyreactivity
2,QVQLVESGGGLVQAGGSLRLSCAASGNIFDRNAMGWYRHAPGKESELVAAISRSGGRTYYADSVKGRFTISRDNAKNTVYLQMNSLKPEDTAVYYCNRRYRNYSSAKYDYWGQGTQVTVSS,high polyreactivity
3,QVQLVESGGGLVQAGGSLRLSCAASGNIFDSYAMGWYRQAPGKERELVAAISFSGGNTYYADSVKGRFTISRDNAKNTVYLQMNSLKPEDTAVYYCAADYFAVTPYRAADVAEDYWGQGTQVTVSS,low polyreactivity
4,QVQLVESGGGLVQAGGSLRLSCAASGNIFDTYVMGWYRQAPGKERELVAAITSDGGTYYADSVKGRFTISRDNAKNTVYLQMNSLKPEDTAVYYCAADTYYYPIHDYWGQGTQVTVSS,low polyreactivity
5,QVQLVESGGGLVQAGGSLRLSCAASGNIFESYCMGWYRQAPGKERELVATINTSSGSTYYADSVKGRFTISRDTAKNTVYLQMNSLKPEDTAVYYCAAEWYPYPWGYGYWGQGTQVTVSS,low polyreactivity
6,QVQLVESGGGLVQAGGSLRLSCAASGNIFESYGMGWYRQAPGKERELVATINTSSGSTYYADSVKGRFTISRDNAKNSVYVQMNSLKPEDTAVYYCAAEWYPYPWGYGYWGQGTQVTVSS,low polyreactivity
7,QVQLVESGGGLVQAGGSLRLSCAASGNIFGDNAMGWYRQAPGKERELVAAITRIDGNTYYADSVKGRFTISRDNAKNTVYLQMNSLKPEDTAVYYCATDEPVGRYQHNYYWGQGSQVTVSS,low polyreactivity
8,QVQLVESGGGLVQAGGSLRLSCAASGNIFGFYTMGWNRQAPGKERELVAAIRSRGGSTNYADSVKGRFTISRDTAKNTVYLQMNSLKPEDTAVYYCNKDGTWLARAVTYADFDYWGQGTQVTVSS,low polyreactivity
9,QVQLVESGGGLVQAGGSLRLSCAASGNIFGIYAMGWYRQAPGKERELVAAIRGRGASTYYADSVKGRFTISRDNAKNTVYLQMNSLKPEDTAVYYCAVDVPLSRYWWRRTYDYWGQGTQVTVSS,low polyreactivity
10,QVQLVESGGGLVQAGGSLRLSCAASGNIFGKNVMGWYRQAPGKEREFVAAITSRGGRTNYADSVKGRFTISRDNAKNTVYLQMNSLKPEDTAVYYCATRYKSPSFDYWGQGTQVTVSS,high polyreactivity
11,QVQLVESGGGLVQAGGSLRLSCAASGNIFGVYAMGWYRQAPGKERELVAAITSGGTSTSYADSVKGRFTISRDNAKNTVYLQINSLKPEDTAVYYCATESSGKLSEYAYWGQGTQVTVSS,low polyreactivity
12,QVQLVESGGGLVQAGGSLRLSCAASGNIFGYYVMGWYRQAPGKERELVAGISSGDSTDYADSVKGRFTISRDNAKNTVYLQMNSLKPEDTAVYYCNADWNPTERWFYWYTPLGYDYWGQGTQVTVSS,low polyreactivity
13,QVQLVESGGGLVQAGGSLRLSCAASGNIFITNAMGWYRQAPGKERELVADISFSGGSTNYADSVKGRFTISRDNAKNTVYLQMNSLKPEDTAVYYCAARALASVSAHKYDNWGQGTQVTVST,low polyreactivity
14,QVQLVESGGGLVQAGGSLRLSCAASGNIFIYNAMGWYRQAPGQERELVAAISVSGGDTYYADSVKGRFTISRDNAKNTVYLQMNSLKPEDTAVYYCKASYVLTGQRYGYWGQGTQVTVSS,low polyreactivity
15,QVQLVESGGGLVQAGGSLRLSCAASGNIFKVNAMGWYRQAPGKERELVAGISWSGGSTYYADSVKGRFTISRDNAKNTVYLQMNSLKPEDTAVYYGNVGRGYWGYLYDYWGQGTQGTVSS,low polyreactivity
16,QVQLVESGGGLVQAGGSLRLSCAASGNIFKYYTMRWYRQAPGKERELVAAITSGGRTNYADSVKGRFTISRDNAKNTVYLQMNSLKPEDTAVYYCAAYDVIYSQGFDYWGQGTQVTVSS,low polyreactivity
17,QVQLVESGGGLVQAGGSLRLSCAASGNIFLYYAMGWYRQAPGKERELVADIDSSGASTYYADSVKGRFTMSRDNAKNTVYLQMNSLKPEDTAVYYCAAEFHWWYAGYDYGYWGQGTQVTVSS,low polyreactivity
18,QVQLVESGGGLVQAGGSLRLSCAASGNIFNLYAMGWYRQAPGKERELVAAIRGSGSTYYADSVKGRFTISRDNAKNTVYLQMNSLKPEDTAVYYCAAGISGHYYWGQGTQVTVSS,high polyreactivity
19,QVQLVESGGGLVQAGGSLRLSCAASGNIFNTYAMGWYRQAPGKERELVAVISSRCGRTYYADSVKGRFTISRENAKNTVYLQMNSLKPEDTAVYYCAAGKHVTFSYEYRMDYWGVGTQVTVSS,low polyreactivity
20,QVQLVESGGGLVQAGGSLRLSCAASGNIFPDYAMGWYRQAPGKERELVAAISSSGSSTYYADSVKGRFTISRDNAKNTVYLQMNSLKKEDTAVYYCATRVYLPTFYIRDTQYYYWGQGTQVTVSS,low polyreactivity
21,QVQLVESGGGLVQAGGSLRLSCAASGNIFPMNAMGWYIEAPGKERELVAAISYSGTSTYYADSVKGRFTISRDKAKNTVYLQMNSLKPEDTAVYYCAARVQRLNLGDYNYWGQGTQVTVSS,low polyreactivity
